The data set is described as follows: amyloid nucleation score (Sup35N fusion, yeast selection) (log enrichment); library NNK3; higher = more nucleation; inactive = no reads after selection. In a few lines:
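Growth for 7 days at 30°C on medium lacking adenine and uracil followed a 24-hour induction with 100 μM copper sulfate of psi-negative yeast expressing peptides of 20 random codons fused to Sup35N. Input and output plasmid inserts were sequenced with Illumina, and sequences with under 100 input reads were excluded. Nucleation score is the DiMSum log enrichment of output over input reads, centred on the mode score of non-aggregating sequences.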

± gives the uncertainty stated by the source.

Consider 130 substances from the supplement of paper PMC12042874.

For the substance WSRSNGVFVGGRNCFLAQDF, the amyloid nucleation score entry was “inactive”.

Take VVSHGF: the amyloid nucleation score result was “inactive”.

Consider RKLNNTSTSHGICVGAWITN, for which the amyloid nucleation score result was “inactive”.

With DQMTHFYYPRNRPRFAISLA, the amyloid nucleation score entry was “inactive”.

In turn, DSFVLYALCNYWCSFCIKGA came in with an amyloid nucleation score of 1.8 ± 0.09.

Turning to HEVLVVIRNLFDFVVFCVLQ, the amyloid nucleation score result is “inactive”.

For FLNTLFYHMGT, the amyloid nucleation score entry is “inactive”.

For the substance CSLVLSESPFGNI, the amyloid nucleation score result is “inactive”.

Take FDWIE: the amyloid nucleation score result is “inactive”.

For IVRIVK, the amyloid nucleation score entry is “inactive”.

With WVCTVVLVKDLPPRRSVLVG, the amyloid nucleation score result was “inactive”.

As for YHLYDETMCMP, the amyloid nucleation score result was “inactive”.

As to RNWKSYRYAVGRCDMGSELL, the amyloid nucleation score result was “inactive”.

Regarding LELLRTERKRMKCLKPVLRV, the amyloid nucleation score entry was “inactive”.

As to GHISGTESCNI, the amyloid nucleation score result is “inactive”.

Take HLELDFNFSVLHTYCYFLAP: the amyloid nucleation score entry was “inactive”.

For the substance RSAFYHNVGGKNRVSWSIL, the amyloid nucleation score result is “inactive”.

In the case of GILNT, the amyloid nucleation score entry was “inactive”.

Regarding NVVCSTARIEKPMGVLCFMF, the amyloid nucleation score was 1.92 ± 0.092.

CMFCLPMGNSIRGLGNRNSV came in with an amyloid nucleation score of 1.87 ± 0.074.

Turning to CFSNLGCTGWRT, the amyloid nucleation score was -0.684 ± 1.2.

ACGFSFF displayed an amyloid nucleation score of -0.264 ± 0.98.

As to AFYCVSGIDYVS, the amyloid nucleation score entry was “inactive”.

As to DQAYWKQCSMSIWYGFRRLV, the amyloid nucleation score result was “inactive”.

Take LARPHDNSGCCSSNCDLRSC: the amyloid nucleation score result was “inactive”.

On to QVKLGRTLTSGQGFTQLHSV, for which the amyloid nucleation score was -0.852 ± 2.5.

In the case of VKFMMPRVDIWFKDGVRRYT, the amyloid nucleation score entry is “inactive”.

VRVVVISPGRSCRVNPSDSP: the amyloid nucleation score entry was “inactive”.

In the case of LRSWNMLPRWVGRYWIFGGK, the amyloid nucleation score entry is “inactive”.

As to NNLVPYLVWYCVTRNKTNGN, the amyloid nucleation score result is “inactive”.

FMRDIKLTGGCGVNCAHLHA: the amyloid nucleation score entry was “inactive”.

The substance YEMMCQYVYECWYIIDARRM showed an amyloid nucleation score of 0.06 ± 0.23.

As to AFLGEEVNSTLLKS, the amyloid nucleation score result was “inactive”.

In turn, INSEWIQSSAMFHPIMGRFR returned an amyloid nucleation score of -0.188 ± 1.5.

On to YCVWLVSKTISWFQTVFI, for which the amyloid nucleation score entry was “inactive”.

Regarding YHPYRWLHESRL, the amyloid nucleation score result is “inactive”.

Turning to SHVQWPDAFFYRTSFGQLLS, the amyloid nucleation score result was “inactive”.

For IRSTGLINFQYWKMKTFLII, the amyloid nucleation score result was “inactive”.

As to FGYVQVTKDPSFMCNYGMQS, the amyloid nucleation score entry was “inactive”.

Regarding PTAVVVGYHSYVTFRAVKCV, the amyloid nucleation score entry was “inactive”.

With VGSCIVKMIDFASTKGRGLI, the amyloid nucleation score entry is “inactive”.

Turning to LVGSSSFTAWPTIVSNI, the amyloid nucleation score entry was “inactive”.

With GNNVTHSRDRCSMWYWVHLL, the amyloid nucleation score result is “inactive”.

As for TFQRSGT, the amyloid nucleation score result was “inactive”.

Take YAFISDYQYGILFYIKWYFG: the amyloid nucleation score result was “inactive”.

With AIVCMHYQVVHCVKVSTCCY, the amyloid nucleation score result was “inactive”.

Take RFKYPPTFKMNSSSFFQSLL: the amyloid nucleation score result was “inactive”.

For the substance LARLYYHFLEVHYVLCIC, the amyloid nucleation score result is “inactive”.

Take PTFFTSVLGFNYRVLYRIAV: the amyloid nucleation score entry was “inactive”.

For the substance CDIRFIYESYVSDNDGVLLH, the amyloid nucleation score result is “inactive”.

On to PNRFNIIHVKFRFSFYATLT, for which the amyloid nucleation score entry was “inactive”.

SVMLDNTVVFTIRSGHCSES showed an amyloid nucleation score of 1.13 ± 0.1.

Take VPGSSNVTCLYEGLSSYNTR: the amyloid nucleation score entry is “inactive”.

Consider LRGSYNVS, for which the amyloid nucleation score result was “inactive”.

With SNLLS, the amyloid nucleation score entry was “inactive”.

Take VCYLFWDVWVFLGEVTANT: the amyloid nucleation score entry was “inactive”.

Turning to INRVHLYRLLKW, the amyloid nucleation score result was “inactive”.

Regarding TNVRALA, the amyloid nucleation score entry was “inactive”.

Consider NRTQRISWIWVLTPSDVLVS, for which the amyloid nucleation score result is “inactive”.

For ANSWIILHSNHFLQFVGIAS, the amyloid nucleation score result was “inactive”.

As to LLRHDLYRVCTNRV, the amyloid nucleation score entry was “inactive”.

In the case of SIDVLKTNINDIRFVIKIRR, the amyloid nucleation score entry is “inactive”.

Take LKNHNLVTKHYYARLMIGLW: the amyloid nucleation score entry is “inactive”.

MLAHGFCQVSEWSRALFLRV displayed an amyloid nucleation score of -0.244 ± 1.5.

Regarding STSVSLTWNPKKRLYYLLTI, the amyloid nucleation score result is “inactive”.

Consider WSSSS, for which the amyloid nucleation score entry was “inactive”.

TVERILC: the amyloid nucleation score entry is “inactive”.

For RHGLAWTYVKKSKMRTAAGR, the amyloid nucleation score result is “inactive”.

Regarding NLWTTGIRTSPKNLYIVAFM, the amyloid nucleation score result was “inactive”.

In the case of VIFNHVLACADYGVHKVVDL, the amyloid nucleation score entry was “inactive”.

In the case of MNRNVTSRVRTPPVCVRVRF, the amyloid nucleation score entry is “inactive”.

Regarding IMEEFVTIFDYLQMAMFTRR, the amyloid nucleation score entry was “inactive”.

Take VSSFFSLPCTSAPVIDWVGV: the amyloid nucleation score entry is “inactive”.

Consider LNPPNKYDLDVFWVMVSYKK, for which the amyloid nucleation score result is “inactive”.

Turning to MKVWFSLPRILGGVKGTANK, the amyloid nucleation score result was “inactive”.

As for WIDGINWLSSLVTAIKHSVK, the amyloid nucleation score result is “inactive”.

For the substance GSQYNSFSK, the amyloid nucleation score entry is “inactive”.

MYTTDYVYRVLVSHFRVPRM: the amyloid nucleation score result was “inactive”.

As for LTFTAVNWAVPVGRGT, the amyloid nucleation score entry was “inactive”.

On to PTLILWDFCCLVLVEAFYGC, for which the amyloid nucleation score entry was “inactive”.

As to HYWVLSFLNETALIIEFWH, the amyloid nucleation score entry was “inactive”.

Take PGFSLFLGLRSVWKHFFCFR: the amyloid nucleation score entry is “inactive”.

For the substance MVKTFVLMTLHLGLMVRFLF, the amyloid nucleation score result is “inactive”.

As to RTLYSQNFK, the amyloid nucleation score result was “inactive”.

Regarding RDIQYLCKYLRSMMHRGQAH, the amyloid nucleation score result was “inactive”.

As for LHMCNS, the amyloid nucleation score entry was “inactive”.

As to CFNSR, the amyloid nucleation score result was “inactive”.

On to LYAINLWLAVFYRLQQFMDV, for which the amyloid nucleation score entry is “inactive”.

IQTSNTHVVLVFFGRILRIC: the amyloid nucleation score result was “inactive”.

Take CVMGIRIHPFVVYNGQGGTS: the amyloid nucleation score result is “inactive”.

With ACVSGIIFLLREQLLKMSGI, the amyloid nucleation score entry is “inactive”.

On to HLPRKLVRPRRF, for which the amyloid nucleation score was -0.415 ± 1.2.

For IRAEGQKIYDLPSFCVLIPR, the amyloid nucleation score result was “inactive”.

Take SCIIWKSWQV: the amyloid nucleation score was 1.14 ± 0.095.

The substance HLRLYCHPMNFRWHRRYYEP gave an amyloid nucleation score of 0.249 ± 0.4.

As to ADCGHLTYLSSNSRSLGRRK, the amyloid nucleation score came out at 0.197 ± 1.

For VVSFNPIKCIVCGV, the amyloid nucleation score result was “inactive”.

As for CWLPFVCCAQCLNRIDVVSR, the amyloid nucleation score turned out to be 2.32 ± 0.066.

As to SVVVVSWTTMLNDKLDPLDG, the amyloid nucleation score result was “inactive”.

As to NKPGVV, the amyloid nucleation score entry is “inactive”.

On to THVPYIT, for which the amyloid nucleation score entry is “inactive”.

Turning to YLPRSW, the amyloid nucleation score entry was “inactive”.

As for NMALLEYDSMSFICRYRNRP, the amyloid nucleation score result was “inactive”.

KGKITCM: the amyloid nucleation score result was “inactive”.

For the substance MQYDASP, the amyloid nucleation score result was “inactive”.

As to ITRWLIVLAVMYYSILSLSV, the amyloid nucleation score entry is “inactive”.

As for WVQVRRVKIE, the amyloid nucleation score entry is “inactive”.

HYWEVYLGTCLRAQDVQER came in with an amyloid nucleation score of 1.57 ± 0.097.

For the substance IRVLVCIFWKTCPPNYVCRI, the amyloid nucleation score result was “inactive”.

As to SLDMYPVVKKCYTYFFFQYF, the amyloid nucleation score was 1.16 ± 0.11.

Consider KFCVVSKTLFNFLTFWFEHG, for which the amyloid nucleation score result was “inactive”.

Turning to LCLCVRFFKAFNRFNYRRFF, the amyloid nucleation score entry is “inactive”.

As for NHGNSDEKTFPTMEN, the amyloid nucleation score result is “inactive”.

For LTRLLGDLIPPVNMGARECD, the amyloid nucleation score entry is “inactive”.

HLSYKSQLS: the amyloid nucleation score result is “inactive”.

Regarding YLHVVTWLMNACPGQPRHWL, the amyloid nucleation score result is “inactive”.

In the case of CWADSDSVSKKSRIA, the amyloid nucleation score entry was “inactive”.

For the substance IHMPHLGIGSKKRVSVRGDA, the amyloid nucleation score result is “inactive”.

In the case of WLVGICWNWRWHLAVAGVVG, the amyloid nucleation score entry is “inactive”.

As for HSVIVVCVFSYELFEFHSAV, the amyloid nucleation score entry is “inactive”.

As to SNQLSFLYNN, the amyloid nucleation score is -0.409 ± 0.76.

Regarding RTWLGWEGNIIPSETGTYRS, the amyloid nucleation score result was “inactive”.

Consider MKYAFRFCRPSVRWVYDPRL, for which the amyloid nucleation score entry is “inactive”.

With LYLGTSYHRNC, the amyloid nucleation score result is “inactive”.

As for GMIASDVFAHFKSGQTMGVW, the amyloid nucleation score entry is “inactive”.

For the substance PVVRQRNALILCLSHMSCLE, the amyloid nucleation score amounted to 2.15 ± 0.063.

Consider VLNSRTTPFI, for which the amyloid nucleation score entry is “inactive”.

On to AAYAALQMSK, for which the amyloid nucleation score entry is “inactive”.

For LITGLDLPGIWHTVYSYYSV, the amyloid nucleation score result is “inactive”.

Consider LMNEKNPSQDNRFRIVRALS, for which the amyloid nucleation score result is “inactive”.
